Legend:
[1] = substrate: C[C@H](NC(=O)CCC(=O)O)C(=O)N[C@@H](C)C(=O)N1CCC[C@H]1C(=O)N[C@@H](Cc1ccccc1)C(=O)Nc1ccc([N+](=O)[O-])cc1; assay: Hydrolysis of peptide p-nitroanilide substrate, kinetic constants; type: biochemical; details: other: Tris-HCl buffer (0.1M, pH 8.6)
Experimental: (§1) Kinetic studies of the modified protein were performed using substrate (N-succinyl-L-alanyl-L-alanyl-L-prolyl-L-phenylalanyl p-nitroanilide) in 0.1M Tris-HCl buffer, pH 8.6. The purified HPLC fractions (three total) were tested for activity while increasing the substrate concentrations in equal increments. Substrate concentration versus rate was plotted to determine Vmax and Km using non-linear regression analysis. A standard of pure subtilisin was analyzed as a control.
As set forth above, the activity of the modified enzymes was assessed with the artificial peptide substrate succinyl-L-alanyl-L-alanyl-L-prolyl-L-phenylalanyl p-nitroanilide. A sample of 30 mg modified protein powder was dissolved in tetrahydrofuran, and filtered with a solvent resistant 0.22 μm filter in order to remove the insoluble native protein. The solvent was evaporated and, as mentioned above, values for Vmax and Km were determined.

[2] = substrate: C[C@H](NC(=O)CCC(=O)O)C(=O)N[C@@H](C)C(=O)N1CCC[C@H]1C(=O)N[C@@H](Cc1ccccc1)C(=O)Nc1ccc([N+](=O)[O-])cc1; assay: as above; type: biochemical; details: other: Tris-HCl buffer (0.1M, pH 8.6); remark: listed apart in the source
Experimental: as §1
Before reacting PEG-subtilisin with other materials it is necessary to fully characterize the activity and stability of the "bio-monomer". Using solubility, IMAC, and HPLC the modified protein was separated into predominantly singly or doubly modified protein fractions. […] Thus, the activities and stabilities noted are average properties for the sample being studied. For comparison to the native protein, unmodified protein was purified from the modification reaction mixture and characterized to some degree.
As set forth above, the activity of the modified enzymes was assessed with the artificial peptide substrate succinyl-L-alanyl-L-alanyl-L-prolyl-L-phenylalanyl p-nitroanilide. […] The solvent was evaporated and, as mentioned above, values for Vmax and Km were determined.

| Protein | Km [1] [µM] | Km [2] [µM] |
| --- | --- | --- |
| Subtilisin Carlsberg, native (pure subtilisin standard) (Bacillus licheniformis) (protein, purchased Sigma Chemical Co) AQTVPYGIPLIKADKVQAQGFKGANVKVAVLDTGIQASHPDLNVVGGASFVAGEAYNTDGNGHGTHVAGTVAALDNTTGVLGVAPSVSLYAVKVLNSSGSGSYSGIVSGIEWATTNGMDVINMSLGGASGSTAMKQAVDNAYAKGVVVVAAAGNSGSSGNTNTIGYPAKYDSVIAVGAVDSNSNRASFSSVGAELEVMAPGAGVYSTYPTNTYATLNGTSMASPHVAGAAALILSKHPNLSASQVRNRLSSTATYLGSSFYYGKGLINVEAAAQ | 120 |  |
| Subtilisin Carlsberg, unmodified fraction purified from the PEG modification reaction mixture (Bacillus licheniformis) (protein, purchased Sigma Chemical Co) AQTVPYGIPLIKADKVQAQGFKGANVKVAVLDTGIQASHPDLNVVGGASFVAGEAYNTDGNGHGTHVAGTVAALDNTTGVLGVAPSVSLYAVKVLNSSGSGSYSGIVSGIEWATTNGMDVINMSLGGASGSTAMKQAVDNAYAKGVVVVAAAGNSGSSGNTNTIGYPAKYDSVIAVGAVDSNSNRASFSSVGAELEVMAPGAGVYSTYPTNTYATLNGTSMASPHVAGAAALILSKHPNLSASQVRNRLSSTATYLGSSFYYGKGLINVEAAAQ |  | 170 |
